The record followed here is patent US20170008949A1 (Hoffmann-La Roche, published 2017).

The target in assay [1] is recombinant glycosylated human PAI-1 (active), produced in insect cells (human, UniProt P05121 24-402, glycosylated (sites not given)). Description: cell-based or functional assay.
Assay [2] deals with recombinant non-glycosylated human PAI-1 (active), produced in E. coli as N-terminal 6xHis-tagged fusion … (human, UniProt P05121 24-402). Description: cell-based or functional assay.
Sequence of recombinant non-glycosylated human PAI-1 (active), produced in E. coli as N-terminal 6xHis-tagged fusion … (P05121 24-402 limits assumed): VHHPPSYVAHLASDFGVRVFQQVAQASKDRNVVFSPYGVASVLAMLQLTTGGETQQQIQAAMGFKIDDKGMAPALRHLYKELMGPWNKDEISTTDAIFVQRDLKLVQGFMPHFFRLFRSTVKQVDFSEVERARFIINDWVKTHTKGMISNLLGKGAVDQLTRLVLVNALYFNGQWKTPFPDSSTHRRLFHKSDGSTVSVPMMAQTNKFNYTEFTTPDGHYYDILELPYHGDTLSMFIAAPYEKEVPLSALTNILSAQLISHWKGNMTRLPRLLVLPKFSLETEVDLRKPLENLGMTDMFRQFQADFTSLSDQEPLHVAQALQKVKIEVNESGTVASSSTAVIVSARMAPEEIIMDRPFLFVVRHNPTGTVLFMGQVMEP

Sequence of recombinant glycosylated human PAI-1 (active), produced in insect cells (P05121 24-402 limits assumed): as above

B1: PAI1-0046 (reference PAI-1 latency inducing antibody with a human IgG4 SPLE Fc-region) (antibody, V domains shown)
VH: QVQLVQSGAEVKKPGASVKVSCKASGYTFTNYGMNWVRQAPGQGLEWMGWINTYTGEPTYTDDFKGRFTMTLDTSISTAYMELSRLRSDDTAVYYCAKDVSGFVFDYWGQGTLVTVSS
VL: DIVMTQSPDSLAVSLGERATINCKSSQSLLNIIKQKNCLAWYQQKPGQPPKLLIYWASTRESGVPDRFSGSGSGTDFTLTISSLQAEDVAVYYCQQYYSYPYTFGQGTKLEIKR
For the molecule B1, the entries for the “IC50 (µM) vs. human PAI-1, PAI-1 inhibition assay (residual rPA serine protease activity)” value in assay [1] and in assay [2] were 0.065 µM and 0.005 µM, respectively.
